T1: His-SAPK3, O08911
T1 chain: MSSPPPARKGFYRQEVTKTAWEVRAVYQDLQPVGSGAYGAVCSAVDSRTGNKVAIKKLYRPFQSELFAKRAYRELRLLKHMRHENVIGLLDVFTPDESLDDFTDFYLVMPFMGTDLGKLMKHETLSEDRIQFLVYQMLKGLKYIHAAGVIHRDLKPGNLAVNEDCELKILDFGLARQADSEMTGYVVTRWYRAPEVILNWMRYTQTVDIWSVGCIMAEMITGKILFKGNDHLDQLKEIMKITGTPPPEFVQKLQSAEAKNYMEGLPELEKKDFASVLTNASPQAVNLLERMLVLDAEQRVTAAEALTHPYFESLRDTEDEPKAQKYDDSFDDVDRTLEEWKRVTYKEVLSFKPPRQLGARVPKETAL

B1: His-MKK7 (protein)
chain: AASSLEQKLSRLEAKLKQENREARRRIDLNLDISPQRPRPIIVITLSPAPAPSQRAALQLPLANDGGSRSPSSESSPQHPTPPTRPRHMLGLPSTLFTPRSMESIEIDQKLQEIMKQTGYLTIGGQRYQAEINDLENLGEMGSGTCGQVWKMRFRKTGHIIAVKQMRRSGNKEENKRILMDLDVVLKSHDCPYIVQCFGTFITNTDVFIAMELMGTCAEKLKKRMQGPIPERILGKMTVAIVKALYYLKEKHGVIHRDVKPSNILLDERGQIKLCDFGISGRLVDSKAKTRSAGCAAYMAPERIDPPDPTKPDYDIRADVWSLGISLVELATGQFPYKNCKTDFEVLTKVLQEEPPLLPGHMGFSGDFQSFVKDCLTKDHRKRPKYNKLLEHSFIKHYEILEVDVASWFKDVMAKTESPRTSGVLSQHHLPFFSGSLEESPTSPPSPKSFPLSPAIPQAQAEWVSGR
B2: GST-SEK1 (protein)
chain: MAAPSPSGGGGSGGGGGTPGPIGPPASGHPAVSSMQGKRKALKLNFANPPVKSTARFTLNPNTTGVQNPHIERLRTHSIESSGKLKISPEQHWDFTAEDLKDLGEIGRGAYGSVNKMVHKPSGQIMAVKRIRSTVDEKEQKQLLMDLDVVMRSSDCPYIVQFYGALFREGDCWICMELMSTSFDKFYKYVYSVLDDVIPEEILGKITLATVKALNHLKENLKIIHRDIKPSNILLDRSGNIKLCDFGISGQLVDSIAKTRDAGCRPYMAPERIDPSASRQGYDVRSDVWSLGITLYELATGRFPYPKWNSVFDQLTQVVKGDPPQLSNSEEREFSPSFINFVNLCLTKDESKRPKYKELLKHPFILMYEERTVEVACYVCKILDQMPATPSSPMYVD
B3: activated GST-MKK7 (protein)
chain: AASSLEQKLSRLEAKLKQENREARRRIDLNLDISPQRPRPIIVITLSPAPAPSQRAALQLPLANDGGSRSPSSESSPQHPTPPARPRHMLGLPSTLFTPRSMESIEIDQKLQEIMKQTGYLTIGGQRYQAEINDLENLGEMGSGTCGQVWKMRFRKTGHVIAVKQMRRSGNKEENKRILMDLDVVLKSHDCPYIVQCFGTFITNTDVFIAMELMGTCAEKLKKRMQGPIPERILGKMTVAIVKALYYLKEKHGVIHRDVKPSNILLDERGQIKLCDFGISGRLVDSKAKTRSAGCAAYMAPERIDPPDPTKPDYDIRADVWSLGISLVELATGQFPYKNCKTDFEVLTKVLQEEPPLLPGHMGFSGDFQSFVKDCLTKDHRKRPKYNKLLEHSFIKRYETLEVDVASWFKDVMAKTESPRTSGVLSQPHLPFFR
B4: His-MKK6 (protein)
chain: MSQSKGKKRNPGLKIPKEAFEQPQTSSTPPRDLDSKACISIGNQNFEVKADDLEPIMELGRGAYGVVEKMRHVPSGQIMAVKRIRATVNSQEQKRLLMDLDISMRTVDCPFTVTFYGALFREGDVWICMELMDTSLDKFYKQVIDKGQTIPEDILGKIAVSIVKALEHLHSKLSVIHRDVKPSNVLINALGQVKMCDFGISGYLVDSVAKTIDAGCKPYMAPERINPELNQKGYSVKSDIWSLGITMIELAILRFPYDSWGTPFQQLKQVVEEPSPQLPADKFSAEFVDFTSQCLKKNSKERPTYPELMQHPFFTLHESKGTDVASFVKLILGD

Columns and labels:
His-SAPK3, O08911 = biological target: T1, His-SAPK3, O08911

His-p38, P47811, sequence (P47811 whole entry): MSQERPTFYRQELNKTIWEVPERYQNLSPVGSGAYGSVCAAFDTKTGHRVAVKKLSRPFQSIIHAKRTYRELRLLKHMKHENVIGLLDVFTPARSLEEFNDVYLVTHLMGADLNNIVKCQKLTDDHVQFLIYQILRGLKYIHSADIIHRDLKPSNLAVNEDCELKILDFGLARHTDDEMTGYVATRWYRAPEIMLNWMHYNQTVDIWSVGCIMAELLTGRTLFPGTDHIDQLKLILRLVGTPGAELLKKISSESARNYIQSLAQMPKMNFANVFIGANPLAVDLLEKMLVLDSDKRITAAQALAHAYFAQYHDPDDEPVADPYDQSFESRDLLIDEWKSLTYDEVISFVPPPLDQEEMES
GST-JNK1, P45983, sequence (P45983 other isoform, or with tags, fused parts or gaps): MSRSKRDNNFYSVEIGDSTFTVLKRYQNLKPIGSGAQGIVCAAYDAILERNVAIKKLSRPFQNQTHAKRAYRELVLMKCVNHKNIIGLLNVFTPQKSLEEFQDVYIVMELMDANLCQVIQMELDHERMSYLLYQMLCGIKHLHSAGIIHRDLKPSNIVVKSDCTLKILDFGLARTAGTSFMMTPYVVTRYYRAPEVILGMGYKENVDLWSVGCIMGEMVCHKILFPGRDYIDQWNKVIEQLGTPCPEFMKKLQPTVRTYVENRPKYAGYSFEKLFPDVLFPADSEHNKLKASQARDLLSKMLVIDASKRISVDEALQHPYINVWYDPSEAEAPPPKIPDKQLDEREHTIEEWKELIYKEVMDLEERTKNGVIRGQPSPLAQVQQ

Protein | activation of the MAP kinase in vitro (32P phosphorylation of MBP, SDS-PAGE and autoradiography) (His-SAPK3, O08911) | activation of the MAP kinase in vitro (32P phosphorylation of GST-cJun, SDS-PAGE and autoradiography) (His-SAPKα, Q9WTU6) | activation of the MAP kinase in vitro (32P phosphorylation of ATF-2, SDS-PAGE and autoradiography) (His-p38, P47811) | phosphorylation (activation) of JNK1 in vitro, dot blot with anti-activated JNK antibody (GST-JNK1, P45983)
B1 | did not activate p38 and SAPK3 | specifically activated SAPK, leading to the phosphorylation of c-Jun | did not activate p38 and SAPK3 | 
B2 | activated all of SAPK, p38 and SAPK3 | activated all of SAPK, p38 and SAPK3 | activated all of SAPK, p38 and SAPK3 | 
B3 |  |  |  | the activity of MKK7 was confirmed by the presence of activated JNK1
B4 | activated p38 and SAPK3 | did not activate SAPK | activated p38 and SAPK3 | 
